Test results from the supplement of paper PMC10126150.
± gives the standard deviation of the averaged measurements.

test system: ATP; assay: switch fluorescence ratio, 500 uM ATP over buffer (Cy3 cluster intensity, sum of 5 cycles each) (fold (ratio)); higher = stronger signal-on switching upon ATP binding; sequences stand for … in TCGTCGGCAGCGTCAGATGTGTATAAGAGACAGTTTTTTTTTTTTTTTTTTTTTTTTT…TC; conditions: aptamer strand: ATP DNA aptamer (quencher-CACCTGGGGGAGTATTGCGGAGGAAGG + anchor), 100 nM annealed; ATP concentration: 500 uM
Summary of the method: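 For every switch-domain sequence, the fluorescence ratio is the mean of per-cluster values, each being summed target-cycle Cy3 intensity over summed buffer-cycle Cy3 intensity. Clusters outside 100-1000 RFU were excluded. On a modified Illumina MiSeq flow-cell, the Cy3-labelled switching-strand clusters were annealed to 100 nM quencher-labelled ATP aptamer, imaged in selection buffer and then after 15 min with 500 uM ATP at 22 °C. Five such cycles were run, with NaOH stripping and re-annealing between them.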
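Note: ATP exposure 15 min at 22 °C before imaging.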

| Sequence | switch fluorescence ratio |
| --- | --- |
| AGTTATTAAT | 1.06 ± 0.054 |
| CGTATGCAAA | 1.06 ± 0.058 |
| AGTGTTGTCA | 0.97 ± 0.043 |
| ATTTGAACAG | 0.978 ± 0.015 |
| TCTGGAATTG | 1.01 ± 0.03 |
| TTTTTGTGA | 0.995 ± 0.026 |
| GGCGAGCTGG | 0.9997 ± 0.0034 |
| TATGGCCAGT | 1.03 ± 0.033 |
| TGGGAGGTAC | 1.24 ± 0.3 |
| CGACCGGGTA | 1.02 ± 0.023 |
| TCTTGAGGGA | 1 ± 0.02 |
| TTTAAACTT | 1.63 ± 1.1 |
| AAATCTTAAA | 0.9917 ± 0.0023 |
| CGCTTTAGGT | 1.02 ± 0.012 |
| CGATGGAATC | 1.69 ± 0.042 |
| TTGCTGTGTG | 1.011 ± 0.0042 |
| GATGAGGTGC | 1.07 ± 0.024 |
| GTGGAAGGGC | 1.03 ± 0.079 |
| TATACTTTTT | 1.01 ± 0.021 |
| CCGTGTTGCG | 1.01 ± 0.022 |
| CTGCTGGGGT | 1.04 ± 0.018 |
| GGGGGCACTC | 0.986 ± 0.031 |
| TGTGTGGCGC | 1.02 ± 0.032 |
| AAAACAAGGA | 1.01 ± 0.041 |
| GGAAAATAGG | 0.977 ± 0.061 |

| Sequence | switch fluorescence ratio |
| --- | --- |
| TTTTGACAGT | 0.996 ± 0.039 |
| GTTAGCGGTT | 0.9884 ± 0.0034 |
| GTAATTTATG | 1.01 ± 0.02 |
| CGGCTGGGGA | 1.03 ± 0.017 |
| TATGTCATCG | 1.01 ± 0.028 |
| AAGGTGGGCC | 0.985 ± 0.019 |
| TTGGTGTGTT | 1.01 ± 0.013 |
| GACGAGGGAT | 1.1 ± 0.034 |
| TGGGTAAAGT | 0.971 ± 0.019 |
| CGTACTGAAA | 1.04 ± 0.0087 |
| TCGAGATTAG | 0.9942 ± 0.0086 |
| AGCATAATTG | 1.01 ± 0.0076 |
| GGTTGAGGTG | 1.01 ± 0.039 |
| GGACTTTTCA | 0.96 ± 0.014 |
| GCATTTTGTT | 0.986 ± 0.019 |
| AGTGTTGTGC | 1.01 ± 0.033 |
| ATGGGAAGTC | 0.992 ± 0.024 |
| CAATTTTGGA | 1.01 ± 0.028 |
| CGGGTCAGTG | 0.968 ± 0.04 |
| AATTTTGCTG | 0.9662 ± 0.0053 |
| AGGAGGGTAG | 1 ± 0.021 |
| CATTTATGCC | 1.17 ± 0.31 |
| AGAGATCCGG | 0.981 ± 0.018 |
| TGTTACTCGT | 1.03 ± 0.0012 |
| GGTGCATGAC | 1.39 ± 0.0037 |

| Sequence | switch fluorescence ratio |
| --- | --- |
| GGTAACGTTT | 0.985 ± 0.027 |
| TTGAGGATAG | 0.987 ± 0.021 |
| ACCCCTATTT | 1.1116 ± 0.00045 |
| CATCGCAAAG | 4.33 ± 0.46 |
| GGAAAAAGAT | 1.04 ± 0.018 |
| AAGTTTGTGT | 1.02 ± 0.0045 |
| TGAAGGCCGG | 0.995 ± 0.033 |
| TTGGGGATGC | 1.33 ± 0.23 |
| ACTCCTTGCT | 1.24 ± 0.018 |
| AGGCAGCTGT | 1.01 ± 0.018 |
| GTTTTTTTAT | 0.987 ± 0.02 |
| TGGAAGATGG | 1.01 ± 0.03 |
| GTGAGTACTT | 1.03 ± 0.014 |
| TTTAACGTCG | 1.035 ± 0.005 |
| TGCGGAGGTT | 1.019 ± 0.0037 |
| ATGGTAACGG | 0.965 ± 0.042 |
| TCTGTGGGGA | 1.04 ± 0.045 |
| TAGGGAAGGG | 0.976 ± 0.032 |
| GTAATAGAGA | 1.01 ± 0.043 |
| GCTGAGAATG | 0.999 ± 0.021 |
| ATGGTTATGC | 1.03 ± 0.051 |
| TTTTAACCGA | 1.08 ± 0.034 |
| GCGGTGGATG | 1.03 ± 0.012 |
| GGAACCAGGC | 1.12 ± 0.032 |
| AATGTTCAGG | 0.995 ± 0.021 |

| Sequence | switch fluorescence ratio |
| --- | --- |
| TGGGGCGTTT | 1.01 ± 0.022 |
| TTTGGTGACG | 1.09 ± 0.029 |
| CAGAAAATGG | 1 ± 0.012 |
| GCTTTCACGA | 0.9879 ± 0.0036 |
| CATTTCCTGG | 1.01 ± 0.044 |
| AAAAAAAAGC | 1.03 ± 0.038 |
| GCGATGTGAC | 1.22 ± 0.059 |
| TTTTTGGTAT | 1.01 ± 0.047 |
| GATTTATATC | 0.993 ± 0.028 |
| CCGGCGCGTG | 1.06 ± 0.1 |
| TGAGTTCGGC | 1.03 ± 0.015 |
| TCTGGGGCTT | 1.0237 ± 0.00017 |
| GTTATGTTGT | 1.01 ± 0.04 |
| GATGGGAGGG | 0.99 ± 0.027 |
| ACGGGTTGAG | 1.03 ± 0.029 |
| GACCTGTTTG | 0.987 ± 0.017 |
| TCCATCTTTT | 0.999 ± 0.014 |
| CGAAGGGTAA | 1.02 ± 0.028 |
| TAGAATGTGG | 0.994 ± 0.042 |
| CAATGCATGC | 1.14 ± 0.082 |
| GCATTATATG | 1 ± 0.03 |
| CTCTCTAGCT | 1.035 ± 0.01 |
| TGAATATTGT | 1.04 ± 0.051 |
| GAAGAGGGGG | 0.991 ± 0.043 |
| TTTGATCGGA | 0.965 ± 0.062 |

| Sequence | switch fluorescence ratio |
| --- | --- |
| GGAATTTAAT | 0.998 ± 0.0014 |
| AAGGGCTTCT | 1.01 ± 0.018 |
| ATTCACTCGG | 1.38 ± 0.48 |
| GTAGAAAGTA | 0.973 ± 0.031 |
| GAGACCTTTT | 1.13 ± 0.17 |
| GAAGGGACGT | 1.07 ± 0.026 |
| TATGGTATCT | 0.994 ± 0.024 |
| CCTTTTGGGT | 1.015 ± 0.0095 |
| TCTATAGTAA | 1.057 ± 0.0087 |
| CAAGGGTATG | 1.03 ± 0.046 |
| ATATTGTCAT | 0.962 ± 0.015 |
| ACTGGGTTTG | 1.001 ± 0.0043 |
| TGAGCGGGTG | 1.01 ± 0.01 |
| GCTTCCGGCC | 1.15 ± 0.054 |
| GCCATGTTGG | 1.004 ± 0.0033 |
| ATTTTAACGT | 1.01 ± 0.046 |
| AGCATAGTCG | 1.04 ± 0.029 |
| TATTGTTTGA | 0.9578 ± 0.0067 |
| AGATTGGGCA | 0.981 ± 0.011 |
| CGTGGGGGAG | 1.02 ± 0.066 |
| TTTTTCCTTT | 1.02 ± 0.033 |
| CAGGGTGTGG | 0.976 ± 0.014 |
| GTTTTCGACT | 1.04 ± 0.0095 |
| GGGATGAAGA | 1 ± 0.013 |
| AGGGGGTTCC | 0.99 ± 0.033 |

| Sequence | switch fluorescence ratio |
| --- | --- |
| GGTTTAGATG | 1.02 ± 0.015 |
| GATTTGGAGT | 0.985 ± 0.018 |
| CGTCGCTTTT | 1.022 ± 0.0052 |
| AAATGGGAGC | 0.99 ± 0.031 |
| TTCAAATCCC | 1.005 ± 0.0094 |
| ATAATAGGGT | 0.972 ± 0.03 |
| TTTAAAGGTT | 1.02 ± 0.054 |
| GGTACGAGGT | 0.972 ± 0.019 |
| GGGGGGTTGT | 1.03 ± 0.17 |
| TTAACTTGTG | 0.986 ± 0.031 |
| ACTCACGGAG | 1.16 ± 0.036 |
| GGAATCTTTT | 1.08 ± 0.085 |
| CGGTAGGCGA | 0.985 ± 0.027 |
| ACAGGTTGGT | 1.03 ± 0.018 |
| TGGGATACGA | 4.47 ± 0.82 |
| AGTAGCGATT | 1.06 ± 0.031 |
| ACGAGAGGGT | 0.973 ± 0.023 |
| AGTATGGGGG | 1.02 ± 0.015 |
| AATCAAAAAG | 0.959 ± 0.018 |
| CACTAGTAAA | 0.9984 ± 0.0094 |
| CCGGGGAGTC | 1.04 ± 0.044 |
| TACTGTGTAT | 1.01 ± 0.035 |
| TACGGGGACT | 1.11 ± 0.028 |
| AGGTGGGTTT | 0.988 ± 0.044 |
| CTGAGTCGGA | 0.983 ± 0.033 |

| Sequence | switch fluorescence ratio |
| --- | --- |
| CAAATGCATA | 1.08 ± 0.017 |
| TCAAATTTTC | 1.02 ± 0.026 |
| CGGGAGGAGG | 1 ± 0.028 |
| AATACGTGGA | 1.029 ± 0.0036 |
| CGGGATATGA | 1.03 ± 0.028 |
| AACCCAATTT | 0.985 ± 0.015 |
| GAGATCTGCT | 0.957 ± 0.015 |
| CGGGGTATCT | 0.979 ± 0.018 |
| TATCTATCTT | 0.994 ± 0.0066 |
| GCCACTTACA | 1.36 ± 0.025 |
| GGGTAGAGTT | 0.9659 ± 0.0052 |
| CGCTTAGGGT | 1.05 ± 0.07 |
| GTTTCAAGAG | 1.03 ± 0.012 |
| TTTTGATCCG | 1.09 ± 0.082 |
| TGGTTTAGTG | 0.976 ± 0.031 |
| TGCCGCTTCT | 1.02 ± 0.058 |
| CGGACTATAT | 1.07 ± 0.032 |
| CATTGTAATT | 0.981 ± 0.011 |
| TTTCGGATGC | 1.22 ± 0.26 |
| GTTTGGTTAT | 0.995 ± 0.012 |
| AGGGTCCCGC | 0.9929 ± 0.0024 |
| TGGGGTGGCT | 0.985 ± 0.015 |
| CGTCCAGCGT | 1.2 ± 0.067 |
| AGGGCTTTTG | 1 ± 0.063 |
| GCGGGGCAAG | 1.06 ± 0.11 |

| Sequence | switch fluorescence ratio |
| --- | --- |
| TTTTAGTAGT | 1.008 ± 0.01 |
| GTTGGGGTTT | 1.01 ± 0.031 |
| TACATAGTTC | 1.032 ± 0.0018 |
| AGTCGTTCAG | 0.949 ± 0.023 |
| ACCATAAGGG | 1 ± 0.028 |
| TTCAGGTGTG | 1.142 ± 0.0073 |
| GGAGGAGCTG | 0.95 ± 0.042 |
| GGGGGAGGTA | 0.977 ± 0.031 |
| TTTTTATGCG | 0.999 ± 0.06 |
| TGGTTTCCTT | 0.955 ± 0.025 |
| ACTTGTGTAA | 1.018 ± 0.0021 |
| TCTGGGGGGT | 1.02 ± 0.035 |
| TTGGAGATTT | 1.02 ± 0.022 |
| CAGGCGGCG | 0.991 ± 0.017 |
| TATAGCCTCG | 0.976 ± 0.017 |
| TCTGCCCCCC | 1.12 ± 0.042 |
| GGGCGGATTT | 1.024 ± 0.008 |
| GTTAGTGTAG | 0.9975 ± 0.0011 |
| AGTCGGGTCT | 1.05 ± 0.083 |
| GACAGTTAGC | 1.03 ± 0.013 |
| GGACGCATAA | 3.51 ± 1.3 |
| AATCTTGGGT | 0.972 ± 0.012 |
| CGCCCGTTGT | 1.01 ± 0.013 |
| TGGGAAAGTC | 0.993 ± 0.026 |
| TCCTTCGGCG | 1.3 ± 0.078 |
